From patent US20230157952A1, “METHOD FOR IMPROVING THE STABILITY OF A PHARMACEUTICAL COMPOSITION COMPRISING A HIGH PENETRATION DRUG, AND THE PHARMACEUTICAL COMPOSITION OBTAINED THEREFROM” (Techfields Inc., priority 2020, published 2023)
Non-standard residues stand in square brackets, D forms with d. Arg(NO2) = N=C(NCCC[C@H](N)C(=O)O)N[N+](=O)[O-]

Assay: Effect of pH value on the stability of the solution (purity)
Format: physicochemical
Conditions: for Purity(%) from day 0-28 / Purity(%) from day 0-14: 25° C.; for Purity(%) at day 1 / Purity(%) at day 30 / Purity(%) at day 90 / Purity(%) at day 180 / Purity(%) at day 360: 5% solution
[1] = 25% ethanol (after multiple recrystalization), pH 3.7, 25° C.
[2] = 25% ethanol with 0.5 equivalent sodium acetate, pH 3.7, 25° C.
[3] = 25% ethanol with 1 equivalent sodium acetate, pH 4.6, 25° C.
[4] = 25% ethanol with 1.5 equivalent sodium acetate, pH 5.6, 25° C.
[5] = 25% ethanol with HCl, pH 2.0, 25° C.
[6] = 25% ethanol with NaOH, pH 7, 25° C.
[7] = 25% ethanol with NaOH, pH 8, 25° C.

CC(C)Cc1ccc(C(C)C(=O)OCCN2CCCCC2)cc1.Cl (racemic) [C-10, 1-piperidineethyl (R,S)-2-(p-isobutylphenyl)propionate•HCl salt]
Purity(%) from day 0-28 (day 0, pH 1.0, 7% in 25% ethanol): 97.6 ± 0.3%
Purity(%) from day 0-28 (day 0, pH 2.0, 7% in 25% ethanol): 97.9 ± 0.4%
Purity(%) from day 0-28 (day 0, pH 3.0, 7% in 25% ethanol): 98.0 ± 0.3%
Purity(%) from day 0-28 (day 0, pH 3.7, 7% in 25% ethanol): 98.2 ± 0.3%
Purity(%) from day 0-28 (day 0, pH 4.0, 7% in 25% ethanol): 98.2 ± 0.2%
Purity(%) from day 0-28 (day 0, pH 4.3, 7% in 25% ethanol): 98.3 ± 0.3%
Purity(%) from day 0-28 (day 0, pH 4.6, 7% in 25% ethanol): 98.2 ± 0.4%
Purity(%) from day 0-28 (day 0, pH 5.0, 7% in 25% ethanol): 98.2 ± 0.3%
Purity(%) from day 0-28 (day 0, pH 6.0, 7% in 25% ethanol): 98.1 ± 0.3%
Purity(%) from day 0-28 (day 0, pH 7.0, 7% in 25% ethanol): 97.8 ± 0.3%
Purity(%) from day 0-28 (day 0, pH 8.0, 7% in 25% ethanol): 97.5 ± 0.5%
Purity(%) from day 0-28 (day 28, pH 1.0, 7% in 25% ethanol): 68.1 ± 0.3%
Purity(%) from day 0-28 (day 28, pH 2.0, 7% in 25% ethanol): 87.0 ± 0.3%
Purity(%) from day 0-28 (day 28, pH 3.0, 7% in 25% ethanol): 87.0 ± 0.2%
Purity(%) from day 0-28 (day 28, pH 3.7, 7% in 25% ethanol): 95.1 ± 0.3%
Purity(%) from day 0-28 (day 28, pH 4.0, 7% in 25% ethanol): 95.8 ± 0.3%
Purity(%) from day 0-28 (day 28, pH 4.3, 7% in 25% ethanol): 95.9 ± 0.2%
Purity(%) from day 0-28 (day 28, pH 4.6, 7% in 25% ethanol): 95.8 ± 0.3%
Purity(%) from day 0-28 (day 28, pH 5.0, 7% in 25% ethanol): 88.5 ± 0.4%
Purity(%) from day 0-28 (day 28, pH 6.0, 7% in 25% ethanol): 87.9 ± 0.3%
Purity(%) from day 0-28 (day 28, pH 7.0, 7% in 25% ethanol): 47.8 ± 0.3%
Purity(%) from day 0-28 (day 28, pH 8.0, 7% in 25% ethanol): 34.1 ± 0.4%

CCN(CC)CCOC(=O)c1ccccc1OC(C)=O.O=C(O)/C=C\C(=O)O [A-1, 2-(diethylamino)ethyl acetylsalicylate•maleic acid salt]
Purity(%) from day 0-14 (day 14, pH 1.0, 7% in water): 59.1 ± 0.4%
Purity(%) from day 0-14 (day 14, pH 2.0, 7% in water): 78.8 ± 0.3%
Purity(%) from day 0-14 (day 14, pH 3.0, 7% in water): 90.9 ± 0.2%
Purity(%) from day 0-14 (day 14, pH 3.7, 7% in water): 94.0 ± 0.3%
Purity(%) from day 0-14 (day 14, pH 4.0, 7% in water): 94.5 ± 0.2%
Purity(%) from day 0-14 (day 14, pH 4.3, 7% in water): 94.6 ± 0.3%
Purity(%) from day 0-14 (day 14, pH 4.6, 7% in water): 94.3 ± 0.2%
Purity(%) from day 0-14 (day 14, pH 5.0, 7% in water): 86.9 ± 0.3%
Purity(%) from day 0-14 (day 14, pH 6.0, 7% in water): 78.9 ± 0.3%
Purity(%) from day 0-14 (day 14, pH 7.0, 7% in water): 57.8 ± 0.4%
Purity(%) from day 0-14 (day 14, pH 8.0, 7% in water): 16.1 ± 0.4%

H-Ala-Pro-Gly-Pro-Arg(NO2)—OCH2CH3•HCl salt (H-APGP[Arg(NO2)]-OEt; also: HCl salt)
Purity(%) at day 1 [1]: 98.1 ± 0.2%
Purity(%) at day 30 [1]: 97.3 ± 0.2%
Purity(%) at day 90 [1]: 95.0 ± 0.1%
Purity(%) at day 180 [1]: 91.2 ± 0.3%
Purity(%) at day 1 [2]: 98.2 ± 0.1%
Purity(%) at day 30 [2]: 97.4 ± 0.2%
Purity(%) at day 90 [2]: 95.1 ± 0.3%
Purity(%) at day 180 [2]: 91.2 ± 0.3%
Purity(%) at day 1 [3]: 98.2 ± 0.2%
Purity(%) at day 30 [3]: 97.3 ± 0.2%
Purity(%) at day 90 [3]: 95.0 ± 0.3%
Purity(%) at day 180 [3]: 91.1 ± 0.3%
Purity(%) at day 1 [4]: 98.1 ± 0.2%
Purity(%) at day 30 [4]: 94.7 ± 0.2%
Purity(%) at day 90 [4]: 91.5 ± 0.3%
Purity(%) at day 180 [4]: 83.7 ± 0.3%
Purity(%) at day 1 [5]: 97.8 ± 0.1%
Purity(%) at day 30 [5]: 84.2 ± 0.2%
Purity(%) at day 90 [5]: 69.6 ± 0.2%
Purity(%) at day 180 [5]: 39.9 ± 0.3%
Purity(%) at day 1 [6]: 97.9 ± 0.2%
Purity(%) at day 30 [6]: 55.2 ± 0.3%
Purity(%) at day 90 [6]: 31.3 ± 0.3%
Purity(%) at day 180 [6]: 0%
Purity(%) at day 1 [7]: 97.5 ± 0.1%
Purity(%) at day 30 [7]: 22.6 ± 0.2%
Purity(%) at day 90 [7]: 0%
Purity(%) at day 180 [7]: 0%
Purity(%) at day 1 (25% ethanol, pH 3.0, 25° C.): 98.1 ± 0.2%
Purity(%) at day 30 (25% ethanol, pH 3.0, 25° C.): 95.7 ± 0.3%
Purity(%) at day 90 (25% ethanol, pH 3.0, 25° C.): 92.8 ± 0.3%
Purity(%) at day 180 (25% ethanol, pH 3.0, 25° C.): 86.0 ± 0.3%

H-Tyr-Gly-Gly-Phe-Met-OCH(CH3)2•HCl salt
Purity(%) at day 1 [1]: 98.9 ± 0.2%
Purity(%) at day 30 [1]: 98.3 ± 0.2%
Purity(%) at day 90 [1]: 97.2 ± 0.1%
Purity(%) at day 180 [1]: 95.4 ± 0.1%
Purity(%) at day 360 [1]: 92.3 ± 0.2%
Purity(%) at day 1 [2]: 98.9 ± 0.1%
Purity(%) at day 30 [2]: 98.4 ± 0.1%
Purity(%) at day 90 [2]: 97.3 ± 0.2%
Purity(%) at day 180 [2]: 95.5 ± 0.2%
Purity(%) at day 360 [2]: 92.5 ± 0.2%
Purity(%) at day 1 [3]: 98.9 ± 0.2%
Purity(%) at day 30 [3]: 98.4 ± 0.2%
Purity(%) at day 90 [3]: 97.4 ± 0.2%
Purity(%) at day 180 [3]: 95.5 ± 0.2%
Purity(%) at day 360 [3]: 92.4 ± 0.2%
Purity(%) at day 1 [4]: 98.8 ± 0.2%
Purity(%) at day 30 [4]: 97.2 ± 0.2%
Purity(%) at day 90 [4]: 94.1 ± 0.1%
Purity(%) at day 180 [4]: 88.7 ± 0.2%
Purity(%) at day 360 [4]: 81.1 ± 0.3%
Purity(%) at day 1 [5]: 98.5 ± 0.1%
Purity(%) at day 30 [5]: 92.1 ± 0.2%
Purity(%) at day 90 [5]: 85.1 ± 0.2%
Purity(%) at day 180 [5]: 71.9 ± 0.2%
Purity(%) at day 360 [5]: 51.8 ± 0.2%
Purity(%) at day 1 [6]: 98.5 ± 0.3%
Purity(%) at day 30 [6]: 77.9 ± 0.2%
Purity(%) at day 90 [6]: 43.6 ± 0.2%
Purity(%) at day 180 [6]: 24.3 ± 0.3%
Purity(%) at day 360 [6]: 0%
Purity(%) at day 1 [7]: 98.2 ± 0.2%
Purity(%) at day 30 [7]: 56.2 ± 0.2%
Purity(%) at day 90 [7]: 33.3 ± 0.3%
Purity(%) at day 180 [7]: 5.8 ± 0.3%
Purity(%) at day 360 [7]: 0%
Purity(%) at day 1 (25% ethanol, pH 3.0, 25° C.): 98.7 ± 0.2%
Purity(%) at day 30 (25% ethanol, pH 3.0, 25° C.): 97.9 ± 0.2%
Purity(%) at day 90 (25% ethanol, pH 3.0, 25° C.): 95.1 ± 0.1%
Purity(%) at day 180 (25% ethanol, pH 3.0, 25° C.): 90.9 ± 0.2%
Purity(%) at day 360 (25% ethanol, pH 3.0, 25° C.): 82.8 ± 0.3%
